This is an account of results in patent publication US20180273587A1 (AILERON THERAPEUTICS, published 2018).

Common to all, as to experiment: Ki; method not stated; unit not printed (nM per Table 6)
One test concerns the target T1, BCL-2 (UniProt P10415 1-217, limits assumed).
T1 construct: Target of the Ki columns

The next test concerns the target T2, MCL-1 (UniProt Q07820 172-327, limits assumed).
T2 construct: Target of the Ki columns; also called Myeloid cell leukemia 1

A further test deals with T3, BCL-XL (UniProt Q07817 1-209).
T3 construct: Target of the Ki columns

Positions of bridges follow the written chain, without caps; N, C: chain ends. Non-standard residues stand in square brackets, D forms with d. Phe(4-F) = N[C@@H](Cc1ccc(F)cc1)C(=O)O; R8 = C=CCCCCCC[C@@](C)(N)C(=O)O; hLeu = CC(C)CC[C@H](N)C(=O)O; S5 = C=CCCC[C@](C)(N)C(=O)O

The Ki is the dissociation constant of the complex between target and ligand, obtained from inhibition or displacement. Read a high Ki as a looser hold on the target.

T2 sequence (Q07820 172-327 limits assumed): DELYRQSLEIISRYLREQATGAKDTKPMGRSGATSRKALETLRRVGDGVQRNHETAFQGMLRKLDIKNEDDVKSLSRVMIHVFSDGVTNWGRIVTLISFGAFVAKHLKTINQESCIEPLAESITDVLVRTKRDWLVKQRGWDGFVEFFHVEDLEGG
T1 sequence (P10415 1-217 limits assumed): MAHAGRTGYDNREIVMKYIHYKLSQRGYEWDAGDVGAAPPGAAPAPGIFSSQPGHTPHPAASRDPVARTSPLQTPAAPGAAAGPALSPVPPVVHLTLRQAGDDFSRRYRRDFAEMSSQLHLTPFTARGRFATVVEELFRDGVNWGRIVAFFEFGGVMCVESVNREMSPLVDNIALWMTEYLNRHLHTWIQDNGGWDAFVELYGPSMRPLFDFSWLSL
T3 sequence (Q07817 1-209): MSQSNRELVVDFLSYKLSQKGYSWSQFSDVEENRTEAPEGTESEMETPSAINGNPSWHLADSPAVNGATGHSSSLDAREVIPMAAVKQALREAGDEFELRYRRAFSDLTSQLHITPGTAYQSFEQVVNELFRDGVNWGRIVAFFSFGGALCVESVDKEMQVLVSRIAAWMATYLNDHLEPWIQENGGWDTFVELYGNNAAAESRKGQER

For IWIAQALRAIGDAFNAYYX (N-terminal Ac; $r8 at 9 and $ at 16 (crosslinked); Aib at 19; C-terminal NH2) [SEQ ID NO: 1770], the Ki with BCL-2 was found to be 218 nM; with MCL-1, 29 nM.

B1: SEQ ID NO: 1727 (peptide)
peptide: Ac-IHIAAALR[R8]IGDAFN[S5]YYA-NH2
modifications: staple 9-16
SMILES: CC[C@H](C)[C@H](NC(C)=O)C(=O)N[C@@H](Cc1c[nH]cn1)C(=O)N[C@H](C(=O)N[C@@H](C)C(=O)N[C@@H](C)C(=O)N[C@@H](C)C(=O)N[C@@H](CC(C)C)C(=O)N[C@@H](CCCNC(=N)N)C(=O)N[C@]1(C)CCCCCCC=CCCC[C@@](C)(C(=O)N[C@@H](Cc2ccc(O)cc2)C(=O)N[C@@H](Cc2ccc(O)cc2)C(=O)N[C@@H](C)C(N)=O)NC(=O)[C@H](CC(N)=O)NC(=O)[C@H](Cc2ccccc2)NC(=O)[C@H](C)NC(=O)[C@H](CC(=O)O)NC(=O)CNC(=O)[C@H]([C@@H](C)CC)NC1=O)[C@@H](C)CC
Take B1: the Ki stood at 19.5 nM with BCL-XL, 43 nM in the test with BCL-2 and 6.6 nM with MCL-1.

B2: SEQ ID NO: 1728 (peptide)
peptide: Ac-ISIAAALR[R8]IGDAFN[S5]YYA-NH2
modifications: staple 9-16
SMILES: CC[C@H](C)[C@H](NC(C)=O)C(=O)N[C@@H](CO)C(=O)N[C@H](C(=O)N[C@@H](C)C(=O)N[C@@H](C)C(=O)N[C@@H](C)C(=O)N[C@@H](CC(C)C)C(=O)N[C@@H](CCCNC(=N)N)C(=O)N[C@]1(C)CCCCCCC=CCCC[C@@](C)(C(=O)N[C@@H](Cc2ccc(O)cc2)C(=O)N[C@@H](Cc2ccc(O)cc2)C(=O)N[C@@H](C)C(N)=O)NC(=O)[C@H](CC(N)=O)NC(=O)[C@H](Cc2ccccc2)NC(=O)[C@H](C)NC(=O)[C@H](CC(=O)O)NC(=O)CNC(=O)[C@H]([C@@H](C)CC)NC1=O)[C@@H](C)CC
On to B2, for which the inhibition constant (Ki) was determined as 56.2 nM in the test with BCL-XL, 89.5 nM with BCL-2 and 15.3 nM with MCL-1.

B3: SEQ ID NO: 1729 (peptide)
peptide: Ac-INIAAALR[R8]IGDAFN[S5]YYA-NH2
modifications: staple 9-16
SMILES: CC[C@H](C)[C@H](NC(C)=O)C(=O)N[C@@H](CC(N)=O)C(=O)N[C@H](C(=O)N[C@@H](C)C(=O)N[C@@H](C)C(=O)N[C@@H](C)C(=O)N[C@@H](CC(C)C)C(=O)N[C@@H](CCCNC(=N)N)C(=O)N[C@]1(C)CCCCCCC=CCCC[C@@](C)(C(=O)N[C@@H](Cc2ccc(O)cc2)C(=O)N[C@@H](Cc2ccc(O)cc2)C(=O)N[C@@H](C)C(N)=O)NC(=O)[C@H](CC(N)=O)NC(=O)[C@H](Cc2ccccc2)NC(=O)[C@H](C)NC(=O)[C@H](CC(=O)O)NC(=O)CNC(=O)[C@H]([C@@H](C)CC)NC1=O)[C@@H](C)CC
As to B3, the inhibition constant (Ki) in the test with BCL-XL was 37.3 nM; with BCL-2 it was 62.5 nM; with MCL-1, 11.2 nM.

B4: SEQ ID NO: 1731 (peptide)
peptide: Ac-IFIAAALR[R8]IGDAFN[S5]YYA-NH2
modifications: staple 9-16
SMILES: CC[C@H](C)[C@H](NC(C)=O)C(=O)N[C@@H](Cc1ccccc1)C(=O)N[C@H](C(=O)N[C@@H](C)C(=O)N[C@@H](C)C(=O)N[C@@H](C)C(=O)N[C@@H](CC(C)C)C(=O)N[C@@H](CCCNC(=N)N)C(=O)N[C@]1(C)CCCCCCC=CCCC[C@@](C)(C(=O)N[C@@H](Cc2ccc(O)cc2)C(=O)N[C@@H](Cc2ccc(O)cc2)C(=O)N[C@@H](C)C(N)=O)NC(=O)[C@H](CC(N)=O)NC(=O)[C@H](Cc2ccccc2)NC(=O)[C@H](C)NC(=O)[C@H](CC(=O)O)NC(=O)CNC(=O)[C@H]([C@@H](C)CC)NC1=O)[C@@H](C)CC
For the molecule B4, the figures for the inhibitory constant (Ki) in the test with BCL-XL, with BCL-2 and in the test with MCL-1 were 45.3 nM, 95.9 nM and 10.2 nM, respectively.

B5: SEQ ID NO: 1730 (peptide)
peptide: Ac-ILIAAALR[R8]IGDAFN[S5]YYA-NH2
modifications: staple 9-16
SMILES: CC[C@H](C)[C@H](NC(C)=O)C(=O)N[C@@H](CC(C)C)C(=O)N[C@H](C(=O)N[C@@H](C)C(=O)N[C@@H](C)C(=O)N[C@@H](C)C(=O)N[C@@H](CC(C)C)C(=O)N[C@@H](CCCNC(=N)N)C(=O)N[C@]1(C)CCCCCCC=CCCC[C@@](C)(C(=O)N[C@@H](Cc2ccc(O)cc2)C(=O)N[C@@H](Cc2ccc(O)cc2)C(=O)N[C@@H](C)C(N)=O)NC(=O)[C@H](CC(N)=O)NC(=O)[C@H](Cc2ccccc2)NC(=O)[C@H](C)NC(=O)[C@H](CC(=O)O)NC(=O)CNC(=O)[C@H]([C@@H](C)CC)NC1=O)[C@@H](C)CC
With B5, the Ki with BCL-XL was determined as 71.8 nM; with BCL-2 it was 126 nM; with MCL-1, 10.2 nM.

B6: SEQ ID NO: 1779 (peptide)
peptide: Ac-AWIAAALR[R8][hLeu]GDAFN[S5]Y[Phe(4-F)]A-NH2
modifications: staple 9-16
SMILES: CC[C@H](C)[C@H](NC(=O)[C@H](Cc1c[nH]c2ccccc12)NC(=O)[C@H](C)NC(C)=O)C(=O)N[C@@H](C)C(=O)N[C@@H](C)C(=O)N[C@@H](C)C(=O)N[C@@H](CC(C)C)C(=O)N[C@@H](CCCNC(=N)N)C(=O)N[C@]1(C)CCCCCCC=CCCC[C@@](C)(C(=O)N[C@@H](Cc2ccc(O)cc2)C(=O)N[C@@H](Cc2ccc(F)cc2)C(=O)N[C@@H](C)C(N)=O)NC(=O)[C@H](CC(N)=O)NC(=O)[C@H](Cc2ccccc2)NC(=O)[C@H](C)NC(=O)[C@H](CC(=O)O)NC(=O)CNC(=O)[C@H](CCC(C)C)NC1=O
B6: the inhibition constant Ki with BCL-XL stood at 37 nM; in the test with MCL-1 it was 52 nM.

B7: SEQ ID NO: 1780 (peptide)
peptide: Ac-AWIAAALR[R8][hLeu]GDAFN[S5]A[Phe(4-F)]A-NH2
modifications: staple 9-16
SMILES: CC[C@H](C)[C@H](NC(=O)[C@H](Cc1c[nH]c2ccccc12)NC(=O)[C@H](C)NC(C)=O)C(=O)N[C@@H](C)C(=O)N[C@@H](C)C(=O)N[C@@H](C)C(=O)N[C@@H](CC(C)C)C(=O)N[C@@H](CCCNC(=N)N)C(=O)N[C@]1(C)CCCCCCC=CCCC[C@@](C)(C(=O)N[C@@H](C)C(=O)N[C@@H](Cc2ccc(F)cc2)C(=O)N[C@@H](C)C(N)=O)NC(=O)[C@H](CC(N)=O)NC(=O)[C@H](Cc2ccccc2)NC(=O)[C@H](C)NC(=O)[C@H](CC(=O)O)NC(=O)CNC(=O)[C@H](CCC(C)C)NC1=O
As to B7, the figures for the Ki in the test with BCL-XL and with MCL-1 were 9 nM and 23 nM, respectively.

B8: SEQ ID NO: 1778 (peptide)
peptide: Ac-IWIAQALR[R8][hLeu]GDAFN[S5][Phe(4-F)][Phe(4-F)]A-NH2
modifications: staple 9-16
SMILES: CC[C@H](C)[C@H](NC(C)=O)C(=O)N[C@@H](Cc1c[nH]c2ccccc12)C(=O)N[C@H](C(=O)N[C@@H](C)C(=O)N[C@@H](CCC(N)=O)C(=O)N[C@@H](C)C(=O)N[C@@H](CC(C)C)C(=O)N[C@@H](CCCNC(=N)N)C(=O)N[C@]1(C)CCCCCCC=CCCC[C@@](C)(C(=O)N[C@@H](Cc2ccc(F)cc2)C(=O)N[C@@H](Cc2ccc(F)cc2)C(=O)N[C@@H](C)C(N)=O)NC(=O)[C@H](CC(N)=O)NC(=O)[C@H](Cc2ccccc2)NC(=O)[C@H](C)NC(=O)[C@H](CC(=O)O)NC(=O)CNC(=O)[C@H](CCC(C)C)NC1=O)[C@@H](C)CC
Consider B8, for which the Ki with BCL-XL was 121 nM; with MCL-1, 127 nM.
